The target in test [1] is T1, FOP patient-derived ACVR1 (Homo sapiens, UniProt Q04771, R206H).
T1 construct: The patient cells were confirmed to be cells having a typical FOP-associated mutation in the ACVR1 gene; endogenous in cells; host or cells: mesenchymal stem cell-like cells differentiated from an FOP patient-derived iPS cell line
T1 sequence (Q04771 21-509 R206H): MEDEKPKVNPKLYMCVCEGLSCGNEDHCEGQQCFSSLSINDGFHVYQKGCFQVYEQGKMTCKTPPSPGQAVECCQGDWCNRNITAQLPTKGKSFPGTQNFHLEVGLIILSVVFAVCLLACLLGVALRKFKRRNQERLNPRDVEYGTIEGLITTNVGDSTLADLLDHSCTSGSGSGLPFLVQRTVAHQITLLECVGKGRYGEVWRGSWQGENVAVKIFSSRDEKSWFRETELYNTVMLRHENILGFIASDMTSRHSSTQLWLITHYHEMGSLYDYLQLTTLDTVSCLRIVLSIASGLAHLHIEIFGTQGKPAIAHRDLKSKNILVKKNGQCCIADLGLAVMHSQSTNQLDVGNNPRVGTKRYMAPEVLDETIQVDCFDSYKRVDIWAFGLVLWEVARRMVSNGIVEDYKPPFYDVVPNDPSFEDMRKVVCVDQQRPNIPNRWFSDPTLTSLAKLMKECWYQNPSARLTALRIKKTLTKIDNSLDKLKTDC
Briefly: Luciferase reporter (BMP responsive sequence) transcription activity via ACVR1 in FOP patient derived cells. In kind it is cell-based. The conditions noted are these: ligand 1, 10, 100 ng/mL, 16 hours, significant at 10 and 100 ng/mL vs untreated group. From the text: (§1) Following the method of Yamanaka et al. (Cell, 2007, 131 (5), […]), FOP patient-derived iPS cells (hereunder also referred to as “patient-derived iPS cell line”) were established. The patient cells were confirmed to be cells having a typical FOP-associated mutation in the ACVR1 gene. The mutation is a substitution of the 206th arginine residue of the amino acid sequence of ACVR1 (the amino acid sequence listed as SEQ ID NO: 10) with a histidine residue. Next, for use as a control, an iPS cell line with the ACVR1 gene mutation repaired to the normal type (wild type) by gene repair by a BAC knockin vector (hereunder also referred to as “gene-corrected iPS cell clone” or “gene-rescued iPS cell clone”) was established.
(§2) The patient-derived iPS cell line and gene-corrected iPS cell line were cultured on the matrix of a Matrigel coated plate (trade name: Growth Factor Reduced (GFR)BD Matrigel® by Becton & Dickinson), using mTeSR1 (Stem Cell Technologies) for 2 days under feeder-free conditions. Next, using serum-free medium [F12 Nutrient Mixture (product of Gibco)/Iscove's Modified Dulbecco's Medium (IMDM) (product of Sigma-Aldrich Japan, KK.)/0.5% bovine serum albumin (BSA) (product of Sigma-Aldrich Japan, KK.)/1% Chemically Defined Lipid (CD-Lipid) (product of Gibco, trade name: Chemically Defined Lipid Concentrate)/15 μg/mL apotransferrin (product of Sigma-Aldrich Japan, KK., trade name: apo-Transferrin human)/7 μg/mL insulin (product of Wako Pure Chemical Industries, Ltd., trade name: Insulin, Human, recombinant)/0.45 mM 1-Thioglycerol (product of Sigma-Aldrich Japan, KK.)] with addition of 10 μM SB-431542 (product of Selleck Chemicals) and 1 μM CHIR99021 (product of Wako Pure Chemical Industries, Ltd.), the patient-derived iPS cell line and gene-corrected iPS cell line were further cultured for 1 week under feeder-free conditions for differentiation to neural crest cells. […]
(§3) After mixing Firefly luciferase reporter plasmid having the BMP responsive sequence in the promoter region (J. Biol. Chem., 2002, 277(7), 4883-4891) and a plasmid having a nucleic acid sequence coding for Renilla luciferase downstream from CMV promoter, as an internal standard (product of Promega Corp., trade name: phRL-CMV Vector), FuGene® HD (Promega Corp.) was used for transfection into the mesenchymal stem cell-like cells. […] Next, the luciferase activity was measured according to the protocol provided with a Dual-Glo Luciferase Assay System (product of Promega Corp.). The luminescence was detected using an EnVision Multilabel Counter (product of Perkin-Elmer). […]

Test [2] deals with T2, wild type ACVR1 (Homo sapiens, UniProt Q04771).
T2 construct: an iPS cell line with the ACVR1 gene mutation repaired to the normal type (wild type) by gene repair by a BAC knockin vector; endogenous in cells; host or cells: mesenchymal stem cell-like cells differentiated from the gene-corrected iPS cell clone
T2 sequence (Q04771 21-509): T1 sequence (Q04771 21-509 R206H) with H186R
Briefly: Luciferase reporter (BMP responsive sequence) transcription activity in gene-corrected clone derived cells. In kind it is cell-based. As to conditions: ligand 1, 10, 100 ng/mL, 16 hours.
From the text: as §1, §2, §3
For orientation: Reporter assays use an easily measured gene product as a stand-in for the process of interest.

Substitutions are numbered along the chain they refer to.

With “human activin A: Recombinant Human/Mouse/Rat Activin A (R&D Systems); homodimer of inhibin βA chains”, the “transcription activity via ACVR1 (firefly/Renilla luciferase activity, BMP responsive sequence)” value is reported as “significantly increased” in test [1] and “not seen” in test [2].

B1: BMP-7: Recombinant Human BMP-7 (R&D Systems); cytokine of the BMP family (protein)
chain: STGSKQRSQNRSKTPKNQEALRMANVAENSSSDQRQACKKHELYVSFRDLGWQDWIIAPEGYAAYYCEGECAFPLNSYMNATNHAIVQTLVHFINPETVPKPCCAPTQLNAISVLYFDDSSNVILKKYRNMVVRACGCH
For the molecule B1, the “transcription activity via ACVR1 (firefly/Renilla luciferase activity, BMP responsive sequence)” value in test [1] and in test [2] was “increased in a concentration-dependent manner” each time.

(Values after US10260068B2, “Prophylactic agent and therapeutic agent for fibrodysplasia ossificans progressiva” (Sumitomo Dainippon Pharma Co., Ltd., priority 2014, dated 2019).)
